The values that follow come from patent US20230357810A1, “NEOPINONE ISOMERASE AND METHODS OF USING” (Antheia, Inc., priority 2017, published 2023).

A value given as a limit tells only on which side of the number the result lay.

In data set [1] the test system is thebaine. The data set can be described thus: NISO-coupled T6ODM-COR-CODM assay with thebaine as substrate, LC-MS/MS. It is filed as biochemical. The following applies: CODM plus NISO vs without NISO, 100 µM thebaine, 30° C., 1 hr.
The test system of data set [2] is neopine formation in the presence of COR. The experiment in a line: Neopine formation with PR10-8 mutant proteins, NISO or NISO mutants and COR (FIG. 13). The class given is biochemical. As to the method:
Neopine formation in the presence of the mutant proteins and COR was assessed, and compared to neopine formation using COR and NISOΔ1, NISOΔ2, and NISOΔ3. In the absence of NISO, neopine constitutes about 25% of the reaction product. Neopine formation can be reduced to 5% or less in the presence of NISO. Consistent with the previous experiment, in the presence of NISOΔ1, NISOΔ2, or NISOΔ3 an increase in neopine is observed, relative to wildtype NISO. […] Thus the relatively modest sequence differences between Domains Δl, Δ2, Δ3, Δ4 of NISO and PR10-8 nevertheless are significant with respect to the ability to suppress neopine production in the presence of COR.

Data set [3] concerns codeinone and morphinone substrates. The data set can be described thus: COR-B assay alone or together with NISO, substrate conversion and products formed (FIG. 16). The following applies: 20 mins. The class given is biochemical. On the procedure: Assay mixtures containing purified recombinant COR-B (~0.1 µg) alone, or purified recombinant COR-B (~0.1 µg) together with purified recombinant NISO (0.196 µg) (1:4 molar ratio), Na-ascorbate cofactor, and 1 mM NADPH, were incubated for 20 mins using one of the following substrates: codeine, neopine, morphine, neopmorphine, codeinone and morphinone. The percentages substrate conversion and products formed were determined.

Data set [4] deals with Yeast strains with chromosomally integrated T6ODM. The data set can be described thus: Hydrocodone production in yeast strains with chromosomally integrated T6ODM (FIG. 14). The class given is cell-based.
The mark [5] stands for this setting: COR-B and NISO together vs COR-B alone.

B1: NISO: neopinone isomerase polypeptide of Papaver somniferum, SEQ.ID NO: 2; recombinant, His6-tagged, from E. coli (protein, listed as Papaver somniferum)
chain: MDSVSAALVFHSSIYLCAMAHHGVSGLVGKIVTELEVNCNADEFYKILKRDEDVPRAVSDLFPPVKIAKGDGLVSGCIKEWDCVLDGKAMSGKEETTHNDETRTLRHRELEGDLMKDYKKFDSIIEVNPKPNGHGSIVTWSIEYEKMNEDSPAPFAYLASFHQNVVEVDSHLCLSE
modifications: His6 tag
notes: recombinant, His6-tagged, from E. coli
Regarding B1, in data set [1], the codeine production result is “increases substantially”, the morphine production entry is “increases” and the neopine production result is on record as “reduced”. Besides, the “neopine formation (share of the reaction product)” value in data set [2] (about 25% in the absence of NISO) is reported as at most 5%. In addition, in data set [3] (setting [5]), the “product codeine formed from codeinone substrate” value is given as “substantial increase” and the “product morphine formed from morphinone substrate” value is given as “substantial increase”. The “codeinone substrate turnover increase” value in data set [3] (COR-B plus NISO (1:4 molar ratio) vs COR-B alone) is about 2 fold.

B2: PR10-8: PR-polypeptide of Papaver somniferum similar to NISO, SEQ.ID NO: 38 (protein, listed as Papaver somniferum)
chain: MAHHGVSGLVGKLVTQLEVNCDADEFYKIWKHHEEVPKAVSHFFPAVKVVKGDGLVSGCIKEWHYILEGKAMSAMEETTHNDETRTLHHQVVEGEVMKDYKAIASIIQVNPNPNGHGSIVTWSIEYEKMNEDSPTPFAYLEFFHQNIIDMNSHLYVGSDSHLHVDE
Take B2: in data set [2], the “ability to reduce neopine production” value is listed as “unable to reduce neopine production”.

B3: MorB: morphine reductase from Pseudomonas putida M10, SEQ.ID NO: 22, expressed in yeast (protein, listed as Papaver somniferum)
chain: MPDTSFSNPGLFTPLQLGSLSLPNRVIMAPLTRSRTPDSVPGRLQQIYYGQRASAGLIISEATNISPTARGYVYTPGIWTDAQEAGWKGVVEAVHAKGGRIALQLWHVGRVSHELVQPDGQQPVAPSALKAEGAECFVEFEDGTAGLHPTSTPRALETDEIPGIVEDYRQAAQRAKRAGFDMVEVHAANACLPNQFLATGTNRRTDQYGGSIENRARFPLEVVDAVAEVFGPERVGIRLTPFLELFGLTDDEPEAMAFYLAGELDRRGLAYLHFNEPDWIGGDITYPEGFREQMRQRFKGGLIYCGNYDAGRAQARLDDNTADAVAFGRPFIANPDLPERFRLGAALNEPDPSTFYGGAEVGYTDYPFLDNGHDRLG
Turning to B3, the production of hydrocodone entry in data set [4] is listed as “trace amounts”.
